{"source": "the supplement of paper PMC7125110", "parents": {"B1": {"name": "glmS ribozyme (parent)", "chain": "AUAAAAGCGCCAGAACUACAGAAAUGUAGUUGACGAGGAGGAGGUUUAUCGAAUUUUCGGCGGAUGCCUCCAAA"}}, "note": "± gives the standard error. Variants at the floor of the assay were thinned out."}
{"variants_of": "B1", "assay": "self-cleavage kobs at 2500 uM GlcN6P; higher = faster cleavage; RNA array", "conditions": "with glucosamine-6-phosphate", "summary_of_the_method": "(§1)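 E. coli RNA polymerase transcribed barcoded ribozyme variants in situ on sequenced MiSeq chips, which were tracked via a hybridised Cy3 probe at 37 °C. Tiles were imaged over ~14 h after glucosamine-6-phosphate (40 μM to 10 mM) in HEPES/KCl/Mg(OAc)2 buffer was flowed in. Normalised per-tile medians were fit to one- or two-exponential decays for kobs, and kcat and KM came from weighted Michaelis–Menten fits.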", "units": {"self-cleavage kobs at 2500 uM GlcN6P": "s⁻¹"}}
{"variant": "AUAAAAGCGCCAGCACUACAGAAAUGUAGGUGACGAGGAGGAGGUUUAUCGGAUUUUCGGCGGAUGCCUCCAAA", "note": "[A14C U30G A52G]", "self-cleavage kobs at 2500 uM GlcN6P": "4.27e-05 ± 2.1e-05"}
{"variant": "AUAAAAGCGCCAGGACUACAGAAAUGUAGUUGACGAGGUGGAGGUUUAUCGAAUUUUCGGCGGAUGCCUCGAAA", "note": "[A14G A39U C71G]", "self-cleavage kobs at 2500 uM GlcN6P": "0.00129 ± 0.00041"}
{"variant": "AUAAAAGCGCCAGGACUACAGAAAUGUAAUUGACGAGGAGGAGAUUUAUCGAAUUUUCGGCGGAUGCCUCCAAA", "note": "[A14G G29A G44A]", "self-cleavage kobs at 2500 uM GlcN6P": "6.19e-05 ± 2.1e-05"}
{"variant": "AUAAAAGCGCCAGCACUACAGAAAUGUAGUUGACGAGGAGGAGGUUUAUCGAAUUCUCGGCGGAUGUCUCCAAA", "note": "[A14C U56C C67U]", "self-cleavage kobs at 2500 uM GlcN6P": "< 1e-05"}
{"variant": "AUAAAAGCGCCAGUACUACAGAAAUGUAGUUGACGAGGACGAGGUUUAUCGAAUUUUCGGCGGAUCCCUCCAAA", "note": "[A14U G40C G66C]", "self-cleavage kobs at 2500 uM GlcN6P": "9.83e-05 ± 2.2e-05"}
{"variant": "AUAAAAGCGCCAGCAUUACAGAAAUGUAGUUGACGAGGAGGAGGUUUAUCGAAUUUUCGGCGGAUGCGUCCAAA", "note": "[A14C C16U C68G]", "self-cleavage kobs at 2500 uM GlcN6P": "9.4e-05 ± 2.8e-05"}
{"variant": "AUAAAAGCGCCAGGACUACAGAAAUGUAGUUGGCGUGGAGGUGGUAUAUCGAAUUUUCGGCGGAUGCCUCCAAA", "note": "[A14G A33G A36U A42U U46A]", "self-cleavage kobs at 2500 uM GlcN6P": "< 1e-05"}
{"variant": "AUAAAAGCGCCAGACCUACAGAAAUGUAGUUGACGCGGAGGAGGUUUAUCGAAUUUUCAGCGGAAGCCUCCAAA", "note": "[A15C A36C G59A U65A]", "self-cleavage kobs at 2500 uM GlcN6P": "< 1e-05"}
{"variant": "AUAAAAGCGCCAGUACUACAGAAAUGUAGUUGACGAGGAGGAGGUUUCUCGAAUUUUCGGCGGAUGCCUUCAAA", "note": "[A14U A48C C70U]", "self-cleavage kobs at 2500 uM GlcN6P": "3.58e-05 ± 1.6e-05"}
{"variant": "AUAAAAGCGCCAGCACUACAGAAAUGUAGGUGACGAGGAGGGGGUUUAUCGACUUUUCGGCGGAUGCCUCCAAA", "note": "[A14C U30G A42G A53C]", "self-cleavage kobs at 2500 uM GlcN6P": "7.92e-05 ± 2.7e-05"}
{"variant": "AUAAAAGCGCCAGUACUACAGAAAUGUAGUUGACGAGGAGGAGGGUUAUCGACUUUUCGGCGGACGCCUCCAAA", "note": "[A14U U45G A53C U65C]", "self-cleavage kobs at 2500 uM GlcN6P": "< 1e-05"}
{"variant": "AUAAAAGCGCCAGUACUACAGAAAUGUAGUUGACGAGGAGUAGGUUUAUCGAAAUUUCGGCGGAUGCCUCCAAA", "note": "[A14U G41U U54A]", "self-cleavage kobs at 2500 uM GlcN6P": "0.000104 ± 3.2e-05"}
{"variant": "AUAAAAGCGCCAGUACUACAGAAAUGUAGCUGACGAGGAGGAGGUUUAUCGAAUUUUCGGCCGAUGCCGCCAAA", "note": "[A14U U30C G62C U69G]", "self-cleavage kobs at 2500 uM GlcN6P": "< 1e-05"}
{"variant": "AUAAAAGCGCCAGCACUACAGAAAUGUACUUGACGAGGAGGAGGUUUAUCGAAUUUUCGGCGGGUGCCUCCAAA", "note": "[A14C G29C A64G]", "self-cleavage kobs at 2500 uM GlcN6P": "5.47e-05 ± 2e-05"}
{"variant": "AUAAAAGCGCCAGUACUACAGAAAUGUAGUUGACGAGGAGGAGGUUCAUCGAAUUUUCGGGGGAUGCCUCCAAA", "note": "[A14U U47C C61G]", "self-cleavage kobs at 2500 uM GlcN6P": "< 1e-05"}
{"variant": "AUAAAAGCGCCAGCACUACAGAAAUGUAGUUGACGAGGAGGAGGUUUAUCGAAGUUUGGGCGGAUGCUUCCAAA", "note": "[A14C U54G C58G C68U]", "self-cleavage kobs at 2500 uM GlcN6P": "4.09e-05 ± 1.3e-05"}
{"variant": "AUAAAAGCGCCAGUACUACAGAAAUGUAGUUGACGAGGAGGAGGUUUAUCCAAUUUUCGGCGGGUGCCUCCAAA", "note": "[A14U G51C A64G]", "self-cleavage kobs at 2500 uM GlcN6P": "< 1e-05"}
{"variant": "AUAAAAGCGCCAGCACUACAGAAAUGUAGUCGACGGGCAGUAGGUUUAUCUAAUUUUCGGCGGAUGCCUCCAAA", "note": "[A14C U31C A36G G38C G41U G51U]", "self-cleavage kobs at 2500 uM GlcN6P": "< 1e-05"}
{"variant": "AUAAAAGCGCCAGCACUACAGAAAUGUAGUGGACGAGGGGGAGGUUUAUCGAAUUUUCGGCGGAUUCCUCCAAA", "note": "[A14C U31G A39G G66U]", "self-cleavage kobs at 2500 uM GlcN6P": "0.00126 ± 0.00036"}
{"variant": "AUAAAAGCGCCAGACCUACAGAAAUGUAGUUGACGCGGAGGAGGUUUUUCGAAUUUUCGGCGGAUGCCUCCAAA", "note": "[A15C A36C A48U]", "self-cleavage kobs at 2500 uM GlcN6P": "< 1e-05"}
{"variant": "AUAAAAGCGCCAGUACUACAGAAAUGUAUUUGACGAGGAGGAGGUUUAUCGAAUUUUCGGCGGAUGGCUCCAAA", "note": "[A14U G29U C67G]", "self-cleavage kobs at 2500 uM GlcN6P": "6.46e-05 ± 2.8e-05"}
{"variant": "AUAAAAGCGCCAGGACUACAGAAAUGUAGAUGACGAGGAGGAGGUUUAUAGAAUUUUCGGCGGAUGCCUCCAAA", "note": "[A14G U30A C50A]", "self-cleavage kobs at 2500 uM GlcN6P": "8.06e-05 ± 2.8e-05"}
{"variant": "AUAAAAGCGCCAGUACUACAGAAAUGUAGUUGACCAGGAGGAGGUUUAUCGAAUUUUCGGCGGAGUCCGCCAAA", "note": "[A14U G35C U65G G66U U69G]", "self-cleavage kobs at 2500 uM GlcN6P": "< 1e-05"}
{"variant": "AUAAAAGCGCCAGUACUACAGAAAUGUAGUUGACGAGGAGGAGGUUUAUCAAAUUUUGGUCGUAAGCCUCCAAA", "note": "[A14U G51A C58G G60U G63U U65A]", "self-cleavage kobs at 2500 uM GlcN6P": "< 1e-05"}
{"variant": "AUAAAAGCGCCAGUACUACAGAAAUGUAGUUGACGAGGAUGAGGUUUAUCGAAUUUUCGACGGAUGCCUGUAAA", "note": "[A14U G40U G60A C70G C71U]", "self-cleavage kobs at 2500 uM GlcN6P": "< 1e-05"}
{"variant": "AUAAAAGCGCCAGUGCUACAGAAAUGUAGUUUACGAGGAGGAGGUUUAUCGAAUUUGCGGCGGAUGCCACCAAA", "note": "[A14U A15G G32U U57G U69A]", "self-cleavage kobs at 2500 uM GlcN6P": "0.000285 ± 0.00012"}
{"variant": "AUAAAAGCGCCAGUACUACAGAAAUGUAGUUGGCGAGGAGGAGGUUUAUCGGAUUUUCGGCGGAUGCUUGAAAA", "note": "[A14U A33G A52G C68U C70G C71A]", "self-cleavage kobs at 2500 uM GlcN6P": "0.000285 ± 9.7e-05"}
{"variant": "AUAAAAGCGCCAGUACUACAGAAAUGUAGUUGACGAGGAGGAGGUUUAUCUAAUUUUCGUCGGAUGCCUCCAAA", "note": "[A14U G51U G60U]", "self-cleavage kobs at 2500 uM GlcN6P": "< 1e-05"}
{"variant": "AUAAAAGCGCCAGUACUACAGAAAUGUAGUUGACGAGGAGGCGGUUUAUCGAAAUUUCGGCGGAUGCCUCCAAA", "note": "[A14U A42C U54A]", "self-cleavage kobs at 2500 uM GlcN6P": "< 1e-05"}
{"variant": "AUAAAAGCGCCAGGACUACAGAAAUGUAGUUGACGAGGAGGAGGAUUAUCGAAUUUUCGGCGGAUGCCACCAAA", "note": "[A14G U45A U69A]", "self-cleavage kobs at 2500 uM GlcN6P": "0.000801 ± 0.00024"}
{"variant": "AUAAAAGCGCCAGUACUACAGAAAUGUAGUUGGCGAGGAUGAGGUUUAUCGAAUUAUCGGCGGAUGCCUCCAAA", "note": "[A14U A33G G40U U56A]", "self-cleavage kobs at 2500 uM GlcN6P": "< 1e-05"}
{"variant": "AUAAAAGCGCCAGUACUACAGAAAUGUAGUUGACGAGGAGGAGGGUUAUCGAAUUUUCGUCGGAUGCCUCCAAA", "note": "[A14U U45G G60U]", "self-cleavage kobs at 2500 uM GlcN6P": "< 1e-05"}
{"variant": "AUAAAAGCGCCAGGACUACAGAAAUGUAGUUGACGAGGAGGAGGUUUAUCGAAUGUUCGGCGGAUUCCUCCAAA", "note": "[A14G U55G G66U]", "self-cleavage kobs at 2500 uM GlcN6P": "0.00182 ± 0.00038"}
{"variants_of": "B1", "assay": "self-cleavage kobs at 10000 uM GlcN6P; higher = faster cleavage; RNA array", "conditions": "with glucosamine-6-phosphate", "summary_of_the_method": "as §1", "units": {"self-cleavage kobs at 10000 uM GlcN6P": "s⁻¹"}}
{"variant": "AUAAAAGCGCCAGUACUACAGAAAUGUAGUUGACGAGGACGAGGUUUAUCGAAUUUUCGGCGGAUCCCUCCAAA", "note": "[A14U G40C G66C]", "self-cleavage kobs at 10000 uM GlcN6P": "0.00012 ± 2.4e-05"}
{"variant": "AUAAAAGCGCCAGACCUACAGAAAUGUAGUUGACGCGGAGGAGGUUUAUCGAAUUUUCAGCGGAAGCCUCCAAA", "note": "[A15C A36C G59A U65A]", "self-cleavage kobs at 10000 uM GlcN6P": "< 1e-05"}
{"variant": "AUAAAAGCGCCAGCACUACAGAAAUGUAGUUGACGAGGAGGAGGUUUAUCGAAGUUUGGGCGGAUGCUUCCAAA", "note": "[A14C U54G C58G C68U]", "self-cleavage kobs at 10000 uM GlcN6P": "4.43e-05 ± 2e-05"}
{"variant": "AUAAAAGCGCCAGGACUACAGAAAUGUAGUUGACGAGGAGGAGGUUUAUCGAAUGUUCGGCGGAUUCCUCCAAA", "note": "[A14G U55G G66U]", "self-cleavage kobs at 10000 uM GlcN6P": "0.00253 ± 0.00062"}
